Assay results taken from paper PMC4118869 (PLoS ONE, 2014).
Numbering of substitutions follows the chain as printed.

B1: R2a-B9 (VHH)
VHH: QVQLVESGGGLVQPGGSLRLSCAASGSAFSINAMGWYRQAPGEEREFVAAITAGGNTYYADSAKARFTISRDNAKNMLYLQMNSLKPEDTAMYYCAATKAFGIATITADYELWGQGTQVTVSS
notes: source: E. coli WK6 periplasm, purified (Talon IMAC, Superdex 75 SEC)
B2: R1a-G5 (VHH)
VHH: QLQLVESGGGLVQPGGSLRLSCAASGSISRIVTMGWYRQASGKERELVAVIGNYGNTNYADSVKGRFTVSRDNAKDTAYLQMNGLNVEDTAIYYCKTSTTTPPYEYWGQGTQVTVSS
notes: as for B1
B3: R1a-F4 (VHH)
VHH: B2 VHH with L2V, A40G, S41P, G84N, I92M, T97C, Y104H, Y106F
notes: as for B1
B4: R2a-E8 (VHH)
VHH: QLQLVESGGGLVQPGGSLRLSCTASGDIFVMYMIDWYRQAPGKQRELVASIDGRGTPMYADSVKGRFTISRDNAKNTVYLQMNSLKPEDTAVYSCHAKSPLVDNEYWGQGTQVTVSS
notes: as for B1
B5: R2a-H9 (VHH)
VHH: QVQLVESGGGLVQPGGSLRLSCAASTNIASFYTMGWYRQTPGQQRDVVAVIGNGGNTNYADSVKGRFTISRDGAKNTAHLQMNSLKPEDTDVYYCKASGPGGVILWGQGTQVTVSS
notes: as for B1
B6: R2a-F9 (VHH)
VHH: QVQLVESGGGLVQPGGSLRLSCSASGSISSIVTMGWYRQAPGKERELVAVIGNYGNTNYADSVKGRFTVSRDNAKNTVYLQMNSLNVEDTAMYVCKFSSTVAPHEYWGQGTQVTVSS
notes: as for B1
B7: R1a-E5 (VHH)
VHH: QLQLVESGGGLVQPGGSLRLSCTASGFSLDNYAIGWFRRAPGEEREGVSFITSTSAVTKYADSVKGRFTISRDNAKNTVYLQMTSLKPEDTAVYYCAGTRWVPTMKADEYNYWGQGTQVTVSS
notes: as for B1
B8: R2a-G9 (VHH)
VHH: QVQLVESGGGLVQPGGSLRLSCAASDNIFSFYTMGWYRQSPGKERELVAVIGNGGNTNYADSVKGRFTISRDNGKNKAHLQMNSLKPEDTAVYYCKASGPGGVEVWGQGTQVTVSS
notes: as for B1
B9: R1a-F5 (VHH)
VHH: QLQLVESGGGLVQVGGSLRLSCAASGFPFDGYAIAWFRQAPGKEREGVSCRASDGNTYYAESLKGRLTMSTDNAKNTVYLQMNSLKPEDTAVYYCAAASWVASLWSPSEYDYWGQGTQVTVSS
notes: as for B1
B10: R1a-E6 (VHH)
VHH: QVQLVESGGGLVQPGGSLRLSCAASGFTLGAYAIAWFRQAPGKEREGVSCISPSDSFTEYGDSVKGRFTVSRDNAKNTVYLQMNSLQPEDTAVYYCAADPVCTAGWYRPSRFDLWGQGTQVTVSS
notes: as for B1
B11: R1a-G6 (VHH)
VHH: QVQLVESGGGLVQSGGSLRLSCAASGSMSRIITMGWYRQAPGMERELVAVIGNNDNTVYGDSVQGRFTVSRDNAKNTAYLQMNSLNAEDTAMYYCKISTLTPPHEYWGQGTQVTVSS
notes: as for B1
B12: R1a-C5 (VHH)
VHH: QVQLVESGGGLVQPGGSLRLSCAASNDIFSFYTMGWYLQAIGKQREPVAVIGNGGNTNYAESVKGRFTISRDGAKNTAYLQMNSLKPEDTAVYYCMASGPGGLNVWGQGTQVTVSS
notes: as for B1

Each binder was assayed against recombinant H9-HA, A/HongKong/1073/99 (H9N2) (Influenza A virus A/Hong Kong/1073/99 …, UniProt Q9ICY5, strain) (assay: SPR). Settings: both partners purified.
B1: no binding. B2: no binding. B3: no binding. B4: no binding. B5: no binding. B6: no binding. B7: no binding. B8: no binding. B9: no binding. B10: no binding. B11: no binding.

The binders below were run against recombinant H5-HA, A/Vietnam/1203/2004 (H5N1) (Influenza A virus A/Vietnam/1203/2004 …, UniProt Q5EP31, strain) (assay: SPR). Settings: both partners purified.
B1: no binding. B2: no binding. B3: no binding. B4: no binding. B5: no binding. B6: no binding. B7: no binding. B8: no binding. B9: no binding. B10: no binding. B11: no binding.

What follows are binders tested against T1, recombinant H2-HA, A/Japan/305/57 (H2N2) (Influenza A virus A/Japan/305/1957 …, UniProt P03451, strain) (assay: SPR). Settings: both partners purified.
T1 construct: source: bought: E-Enzymes (Protein Sciences in the SPR methods)
B1: no binding. B2: no binding. B3: no binding. B4: no binding. B5: no binding. B6: no binding. B7: no binding. B8: no binding. B9: no binding. B10: no binding. B11: no binding.

What follows are binders tested against recombinant H1-HA (D18-I530), A/California/06/2009 (H1N1)pdm09 (Influenza A virus A/California/06/2009 …, UniProt C3W5S1, strain) (assay: SPR). Settings: both partners purified.
Work on B1 yielded a Kd of 0.16 nM, a koff of 4.94e-05 s⁻¹ and a kon of 312000 M⁻¹ s⁻¹. Binder B2 has a Kd of 5.85 nM, a koff of 0.00504 s⁻¹ and a kon of 862000 M⁻¹ s⁻¹. For B3, the Kd was 6.46 nM, the koff was 0.0022 s⁻¹ and the kon was 340000 M⁻¹ s⁻¹. Binder B4 has a Kd of 0.79 nM, a koff of 0.000148 s⁻¹ and a kon of 187000 M⁻¹ s⁻¹. With B12 the Kd was 37.6 nM, the koff was 0.0206 s⁻¹ and the kon was 548000 M⁻¹ s⁻¹. In the case of B5, the Kd is reported as 2.77 nM, the koff is reported as 0.000384 s⁻¹ and the kon is reported as 139000 M⁻¹ s⁻¹. Work on B6 yielded a Kd of 78.8 nM, a koff of 0.065 s⁻¹ and a kon of 825000 M⁻¹ s⁻¹. B7 showed a Kd of 0.79 nM, a koff of 7.61e-05 s⁻¹ and a kon of 97600 M⁻¹ s⁻¹. With B8 the Kd was 22.1 nM, the koff was 0.00392 s⁻¹ and the kon was 177000 M⁻¹ s⁻¹. With B9 the Kd was 10 nM, the koff was 0.000414 s⁻¹ and the kon was 40200 M⁻¹ s⁻¹. With B10 the Kd was 9.97 nM, the koff was 0.000151 s⁻¹ and the kon was 15100 M⁻¹ s⁻¹. In the case of B11, the Kd is reported as 4.83 nM, the koff is reported as 0.000355 s⁻¹ and the kon is reported as 73800 M⁻¹ s⁻¹.

The binders below were run against recombinant HA1 domain (D18-R344), A/California/06/2009 (H1N1)pdm09 (Influenza A virus A/California/06/2009 …, UniProt C3W5S1, strain) (assay: SPR). Settings: both partners purified.
B2 showed a Kd of 15.6 nM. B3 gave a Kd of 4.74 nM. B12 showed a Kd of 38.4 nM. B5 gave a Kd of 468 nM. B6 was tested, and the Kd was 78.8 nM. For B8, the Kd was 68.7 nM. With B9 the Kd was 6.06 nM. Binder B10 has a Kd of 36 nM. In the case of B11, the Kd is reported as 4.62 nM.

What follows are binders tested against hemagglutinin of A/Brisbane/10/2007 (H3N2), in the influenza virus antigen standard (Influenza A virus A/Brisbane/10/2007 …, UniProt A8W8K8, strain) (assay: ELISA). Settings: one partner purified.
B1: no binding. B2: no binding. B3: no binding. B4: no binding. B12: no binding. B5: no binding. B6: no binding. B7: no binding. B8: no binding. B9: no binding. B10: no binding. B11: no binding.

The binders below were run against phage displayed HA gene fragment D363-G478 (Influenza A virus A/California/07/2009 …, UniProt C3W5X2) (assay: ELISA). Settings: both partners purified.
B1: no binding. B2: no binding. B3: no binding. B4: no binding. B6: no binding. B7: no binding. B9: no binding. B10: no binding. B11: no binding.

The binders below were run against phage displayed HA gene fragment L193-K225 (Influenza A virus A/California/07/2009 …, UniProt C3W5X2) (assay: ELISA). Settings: both partners purified.
B1: no binding. B2: no binding. B3: no binding. B4: no binding. B12: binds. B5: no binding. B6: no binding. B7: no binding. B8: no binding. B9: no binding. B10: no binding. B11: no binding.

These binders were tested against hemagglutinin of A/California/07/2009 (H1N1)pdm09, in the influenza virus antigen standard (Influenza A virus A/California/07/2009 …, UniProt C3W5X2, strain) (assay: ELISA). Settings: one partner purified.
B1: binds. B2: binds. B3: binds. B4: binds. B12: binds. B5: binds. B6: binds. B7: binds. B8: binds. B9: binds. B10: binds. B11: binds.

The binders below were run against phage displayed HA gene fragment P66-I282 (Influenza A virus A/California/07/2009 …, UniProt C3W5X2) (assay: ELISA). Settings: both partners purified.
B1: no binding. B2: binds. B3: binds. B4: no binding. B12: binds. B5: binds. B6: binds. B7: no binding. B8: binds. B9: binds. B10: binds. B11: binds.

The binders below were run against T2, recombinant H7-HA, A/Netherlands/219/2003 (H7N7) (Influenza A virus …, UniProt Q6VMK1) (assay: SPR; data not shown: sdAbs on immobilised recombinant H3-HA and H7-HA). Settings: both partners purified.
T2 construct: source: bought: Protein Sciences
B1: no binding. B2: no binding. B3: no binding. B4: no binding. B12: no binding. B5: no binding. B6: no binding. B7: no binding. B8: no binding. B9: no binding. B10: no binding. B11: no binding.

What follows are binders tested against T3, recombinant H3-HA, A/Brisbane/10/2007 (H3N2) (Influenza A virus A/Brisbane/10/2007 …, UniProt A8W8K8, strain) in the same assay as above. Settings: both partners purified.
T3 construct: source: bought: Protein Sciences
B1: no binding. B2: no binding. B3: no binding. B4: no binding. B12: no binding. B5: no binding. B6: no binding. B7: no binding. B8: no binding. B9: no binding. B10: no binding. B11: no binding.
